Assay results from patent US20230143604A1, “QW DOSING OF GIP RECEPTOR AGONIST PEPTIDE COMPOUNDS AND USES THEREOF” (TAKEDA PHARMACEUTICAL COMPANY LIMITED, priority 2020, published 2023).
Non-standard residues stand in square brackets, D forms with d. No end group written: not given here. *: point of attachment. 2OEGgEgE‑C18 diacid = O=C(O)CCCCCCCCCCCCCCCCC(=O)N[C@@H](CCC(=O)N[C@@H](CCC(=O)NCCOCCOCC(=O)NCCOCCOCC(=O)*)C(=O)O)C(=O)O; NMeY = CN[C@@H](Cc1ccc(O)cc1)C(=O)O; Aib = CC(C)(N)C(=O)O

Legend:
physchem = conditions: pH 7.4, aqueous buffer
Summary of the method: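 Solubility at pH 7.4 determined by stepwise addition of 200 mM phosphate buffer in 100 μL increments to 3 mg peptide, mixing briefly each time, until no insoluble material remained, then measured by liquid chromatography.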

[1] = molecular target: full-length human GLP-1R with an N-terminal FLAG tag (human, UniProt P43220 24-463); assay: cell-based or functional assay
[2] = molecular target: T1, full-length human GIPR with an N-terminal FLAG tag (human, UniProt P48546 22-466); assay: cell-based or functional assay
T1 sequence (looked up): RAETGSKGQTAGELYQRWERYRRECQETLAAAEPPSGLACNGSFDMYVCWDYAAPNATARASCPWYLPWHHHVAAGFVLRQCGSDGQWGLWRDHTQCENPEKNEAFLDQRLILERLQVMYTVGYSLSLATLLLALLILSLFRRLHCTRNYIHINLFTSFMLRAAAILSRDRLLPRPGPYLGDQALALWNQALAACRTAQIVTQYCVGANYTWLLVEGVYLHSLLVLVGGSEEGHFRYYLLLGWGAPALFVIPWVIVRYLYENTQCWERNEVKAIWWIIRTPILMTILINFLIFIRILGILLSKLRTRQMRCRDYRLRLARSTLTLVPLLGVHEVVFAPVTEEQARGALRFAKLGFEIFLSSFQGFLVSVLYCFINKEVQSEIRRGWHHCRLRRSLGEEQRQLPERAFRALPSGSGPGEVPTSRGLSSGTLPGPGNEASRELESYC

Question: For `CC[C@H](C)[C@H](NC(=O)[C@H](CO)NC(=O)[C@H](Cc1ccc(O)cc1)NC(=O)[C@H](CC(=O)O)NC(=O)[C@H](CO)NC(=O)[C@@H](NC(=O)[C@H](Cc1ccccc1)NC(=O)[C@@H](NC(=O)CNC(=O)[C@H](CCC(=O)O)NC(=O)C(C)(C)NC(=O)[C@H](Cc1ccc(O)cc1)NC)[C@@H](C)O)[C@@H](C)CC)C(=O)N[C@@H](C)C(=O)N[C@@H](CC(C)C)C(=O)N[C@@H](CC(=O)O)C(=O)N[C@@H](CCCNC(=N)N)C(=O)N[C@@H](CCCCNC(=O)CNC(=O)CNC(=O)CNC(=O)CNC(=O)CNC(=O)CCCCCCCCCCCCCCCCC(=O)O)C(=O)N[C@@H](C)C(=O)N[C@@H](CCC(N)=O)C(=O)N[C@@H](CCC(N)=O)C(=O)N[C@@H](CC(=O)O)C(=O)N[C@@H](Cc1ccccc1)C(=O)N[C@H](C(=O)N[C@@H](CC(N)=O)C(=O)N[C@@H](Cc1c[nH]c2ccccc12)C(=O)N[C@@H](CC(C)C)C(=O)N[C@@H](CC(C)C)C(=O)N[C@@H](C)C(=O)N[C@@H](CCC(N)=O)C(=O)N[C@@H](CCCNC(=N)N)C(=O)N1CCC[C@H]1C(=O)N[C@@H](CO)C(=O)N[C@@H](CO)C(=O)NCC(=O)O)C(C)C` [Compound 288], which solubility (physchem) is on record?
Answer: < 6000 µg/mL

B1: Compound No. 55 (peptide)
peptide: [NMeY][Aib]EGTFISDYSIALDR[Aib]AQ[Aib]NFVNWLLAK(2OEGgEgE‑C18 diacid)RG-OH
modifications: N-terminus assumed
SMILES: CC[C@H](C)[C@H](NC(=O)[C@H](CO)NC(=O)[C@H](Cc1ccc(O)cc1)NC(=O)[C@H](CC(=O)O)NC(=O)[C@H](CO)NC(=O)[C@@H](NC(=O)[C@H](Cc1ccccc1)NC(=O)[C@@H](NC(=O)CNC(=O)[C@H](CCC(=O)O)NC(=O)C(C)(C)NC(=O)[C@H](Cc1ccc(O)cc1)NC)[C@@H](C)O)[C@@H](C)CC)C(=O)N[C@@H](C)C(=O)N[C@@H](CC(C)C)C(=O)N[C@@H](CC(=O)O)C(=O)N[C@@H](CCCNC(=N)N)C(=O)NC(C)(C)C(=O)N[C@@H](C)C(=O)N[C@@H](CCC(N)=O)C(=O)NC(C)(C)C(=O)N[C@@H](CC(N)=O)C(=O)N[C@@H](Cc1ccccc1)C(=O)N[C@H](C(=O)N[C@@H](CC(N)=O)C(=O)N[C@@H](Cc1c[nH]c2ccccc12)C(=O)N[C@@H](CC(C)C)C(=O)N[C@@H](CC(C)C)C(=O)N[C@@H](C)C(=O)N[C@@H](CCCCNC(=O)COCCOCCNC(=O)COCCOCCNC(=O)CC[C@H](NC(=O)CC[C@H](NC(=O)CCCCCCCCCCCCCCCCC(=O)O)C(=O)O)C(=O)O)C(=O)N[C@@H](CCCNC(=N)N)C(=O)NCC(=O)O)C(C)C
Question: With B1 as the molecule, how does the “Human GLP1R cAMP EC50, HEK293T” value [1] read?
Answer: 741 nM

Question: And the “Human GIPR cAMP EC50, HEK293T” value [2]?
Answer: 0.0009 nM

Question: Which results are given for YXEGTFISDYSIXXDRXAQXDFVNWLLAQSG (N-methyl Tyr 1; Aib at 2,13,17,20; Lys(G5-C18 diacid) at 14; C-terminal OH) [Compound No. 53]?
Answer: Human GLP1R cAMP EC50, HEK293T [1]: 47.9 nM; Human GIPR cAMP EC50, HEK293T [2]: 0.0005 nM

B2: Compound No. 57 (peptide)
peptide: [NMeY][Aib]EGTFISDYSIALDR[Aib]AQ[Aib]DFVNWLLAK(2OEGgEgE‑C18 diacid)RGGGGS-NH2
modifications: N-terminus assumed
SMILES: CC[C@H](C)[C@H](NC(=O)[C@H](CO)NC(=O)[C@H](Cc1ccc(O)cc1)NC(=O)[C@H](CC(=O)O)NC(=O)[C@H](CO)NC(=O)[C@@H](NC(=O)[C@H](Cc1ccccc1)NC(=O)[C@@H](NC(=O)CNC(=O)[C@H](CCC(=O)O)NC(=O)C(C)(C)NC(=O)[C@H](Cc1ccc(O)cc1)NC)[C@@H](C)O)[C@@H](C)CC)C(=O)N[C@@H](C)C(=O)N[C@@H](CC(C)C)C(=O)N[C@@H](CC(=O)O)C(=O)N[C@@H](CCCNC(=N)N)C(=O)NC(C)(C)C(=O)N[C@@H](C)C(=O)N[C@@H](CCC(N)=O)C(=O)NC(C)(C)C(=O)N[C@@H](CC(=O)O)C(=O)N[C@@H](Cc1ccccc1)C(=O)N[C@H](C(=O)N[C@@H](CC(N)=O)C(=O)N[C@@H](Cc1c[nH]c2ccccc12)C(=O)N[C@@H](CC(C)C)C(=O)N[C@@H](CC(C)C)C(=O)N[C@@H](C)C(=O)N[C@@H](CCCCNC(=O)COCCOCCNC(=O)COCCOCCNC(=O)CC[C@H](NC(=O)CC[C@H](NC(=O)CCCCCCCCCCCCCCCCC(=O)O)C(=O)O)C(=O)O)C(=O)N[C@@H](CCCNC(=N)N)C(=O)NCC(=O)NCC(=O)NCC(=O)NCC(=O)N[C@@H](CO)C(N)=O)C(C)C
Question: Which “Human GLP1R cAMP EC50, HEK293T” value [1] does the source give for B2 here?
Answer: > 1000 nM

Question: What about the “Human GIPR cAMP EC50, HEK293T” value [2] of the same molecule?
Answer: 0.0006 nM

Question: With [NMeY][Aib]EGTFISDYSIALDRIHQQNFVNWLLAQK-NH2 (not fully specified (residue 30)) [Compound No. 5] as the molecule, how does the “Human GLP1R cAMP EC50, HEK293T” value [1] read?
Answer: 123 nM

Question: And the “Human GIPR cAMP EC50, HEK293T” value [2]?
Answer: 0.0007 nM

B3: Compound No. 56 (peptide)
peptide: [NMeY][Aib]EGTFISDYSIALDR[Aib]AQ[Aib]DFVNWLLAK(2OEGgEgE‑C18 diacid)RG-OH
modifications: N-terminus assumed
SMILES: CC[C@H](C)[C@H](NC(=O)[C@H](CO)NC(=O)[C@H](Cc1ccc(O)cc1)NC(=O)[C@H](CC(=O)O)NC(=O)[C@H](CO)NC(=O)[C@@H](NC(=O)[C@H](Cc1ccccc1)NC(=O)[C@@H](NC(=O)CNC(=O)[C@H](CCC(=O)O)NC(=O)C(C)(C)NC(=O)[C@H](Cc1ccc(O)cc1)NC)[C@@H](C)O)[C@@H](C)CC)C(=O)N[C@@H](C)C(=O)N[C@@H](CC(C)C)C(=O)N[C@@H](CC(=O)O)C(=O)N[C@@H](CCCNC(=N)N)C(=O)NC(C)(C)C(=O)N[C@@H](C)C(=O)N[C@@H](CCC(N)=O)C(=O)NC(C)(C)C(=O)N[C@@H](CC(=O)O)C(=O)N[C@@H](Cc1ccccc1)C(=O)N[C@H](C(=O)N[C@@H](CC(N)=O)C(=O)N[C@@H](Cc1c[nH]c2ccccc12)C(=O)N[C@@H](CC(C)C)C(=O)N[C@@H](CC(C)C)C(=O)N[C@@H](C)C(=O)N[C@@H](CCCCNC(=O)COCCOCCNC(=O)COCCOCCNC(=O)CC[C@H](NC(=O)CC[C@H](NC(=O)CCCCCCCCCCCCCCCCC(=O)O)C(=O)O)C(=O)O)C(=O)N[C@@H](CCCNC(=N)N)C(=O)NCC(=O)O)C(C)C
Question: With B3 as the molecule, how does the “Human GLP1R cAMP EC50, HEK293T” value [1] read?
Answer: > 1000 nM

Question: What about the “Human GIPR cAMP EC50, HEK293T” value [2] of the same molecule?
Answer: 0.0006 nM

Question: For [NMeY][Aib]EGTFISDYSIALDRK(2OEGgE‑C18 diacid)HQQNFVNWLLAQRPSSGAPPPS-NH2 [Compound No. 4], which “Human GLP1R cAMP EC50, HEK293T” value [1] is on record?
Answer: 38.9 nM

Question: What about the “Human GIPR cAMP EC50, HEK293T” value [2] of the same molecule?
Answer: 0.001 nM

Question: What does the source list for [NMeY][Aib]EGTFISDYSIALDR[Aib]AQ[Aib]DFVNWLLAK(2OEGgEgE‑C18 diacid)RPSSGAPPPS-NH2 [Compound No. 58]?
Answer: Human GLP1R cAMP EC50, HEK293T [1]: > 1000 nM; Human GIPR cAMP EC50, HEK293T [2]: 0.0004 nM

Question: For YXEGTFISDYSIXXDRXAQXDFVNWLLAQRPSSGAPPPS (N-methyl Tyr 1; Aib at 2,13,17,20; Lys(G5-C18 diacid) at 14; C-terminal OH) [Compound No. 54], which “Human GLP1R cAMP EC50, HEK293T” value [1] is on record?
Answer: 120 nM

Question: What about the “Human GIPR cAMP EC50, HEK293T” value [2] of the same molecule?
Answer: 0.0006 nM

Question: For YXEGTFISDYSIAXDRXAQXNFVNWLLAQSPSSGAPPPS (N-methyl Tyr 1; Aib at 2,17,20; Lys(G5-C20 diacid) at 14; C-terminal OH) [Compound No. 40], which “Human GIPR cAMP EC50, HEK293T” value [2] is on record?
Answer: 0.0007 nM

Question: For YXEGTFISDYSIAXDRXAQXNFVNWLLAQSPSSGAPPPS (N-methyl Tyr 1; Aib at 2,17,20; Lys(G5-C20 diacid) at 14; C-terminal OH) [Compound No. 112], which “Human GIPR cAMP EC50, HEK293T” value [2] is on record?
Answer: 0.0003 nM
